Measurements reported in patent publication US12559749B2, “Methods of rescuing stop codons via genetic reassignment with ACE-tRNA” (UNIVERSITY OF IOWA RESEARCH FOUNDATION, priority 2017, dated 2026).

Test system: CFTR W1282X
Experiment: CFTR W1282X rescue, western blot of B and C bands, HEK cells
Type: cell-based, human
Conditions: co-expression with CFTR W1282X cDNA in HEK cells
Experimental: To assess is these novel tRNA could rescue CFTR channels harboring nonsense codons, they were co-expressed in mammalian HEK cells with a CFTR W1282X cDNA plasmid. The cellular preparations were analyzed by standard biochemical approaches via Western blot assessment of CFTR protein. […] Specifically, the “B” and “C” bands represent the full-length and fully mature, post-translationally proceeded CFTR protein at the cell surface, respectively. […] FIG. 9.
For expression in mammalian cells, the cDNA for the coding region and 200 base-pair of the 3′ untranslated region (UTR) of human CFTR was ligated into pcDNA3.1(+) (Promega, USA) using the KpnI and XbaI restriction enzymes. The G542tga and W1282tga mutations were introduced using QuickChange XL II (Stratagene, USA). For expression in Xenopus laevis oocytes, the cDNA for the coding region and 140 base-pair of the 5′ and 244 base-pair 3′ UTR of human CFTR was ligated into pGEM-HE (Promega, USA). Bothe the G542tga and W1282tga mutations were introduced using QuickChange XL II. The cDNA encoding the E. coli histidinol dehydrogenase was codon optimized for Mus musculus and synthesized (BioBasic Inc, Canada) with a c-terminal 8×His-Strep-tag (“8×His” disclosed as SEQ ID NO: 647) for protein purification from mammalian cells. The synthesized cDNA was ligated into pcDNA3.1(+) using EcoRI and XhoI restriction sites. […]

B1: Glychr19.trna2: top performing glycine ACE-tRNA UGA, SEQ ID NO: 53 (nucleic acid)
chain: GCGUUGGUGGUAUAGUGGUUAGCAUAGCUGCCUUCAAAGCAGUUGACCCGGGUUCGAUUCCCGGCCAACGCA
modifications: chemistry not given here
- rescue of CFTR protein, B and C bands: robust populations of ‘B’ and ‘C’ CFTR immunopositive
